Test results published in patent US20210347908A1 (ELPISCIENCE SUZHOU BIOPHARMA, published 2021).
Read-outs that look alike come from different tables or passages of the source.

T1: 6×His tagged C57BL/6 mouse SIRPα ECD recombinant protein (mouse (C57BL/6), UniProt P97797 32-373)
T1 construct: extracellular domain; bought; also called mSIRPα (C57BL/6); mouse SIRPα (C57BL/6) ECD
T1 sequence: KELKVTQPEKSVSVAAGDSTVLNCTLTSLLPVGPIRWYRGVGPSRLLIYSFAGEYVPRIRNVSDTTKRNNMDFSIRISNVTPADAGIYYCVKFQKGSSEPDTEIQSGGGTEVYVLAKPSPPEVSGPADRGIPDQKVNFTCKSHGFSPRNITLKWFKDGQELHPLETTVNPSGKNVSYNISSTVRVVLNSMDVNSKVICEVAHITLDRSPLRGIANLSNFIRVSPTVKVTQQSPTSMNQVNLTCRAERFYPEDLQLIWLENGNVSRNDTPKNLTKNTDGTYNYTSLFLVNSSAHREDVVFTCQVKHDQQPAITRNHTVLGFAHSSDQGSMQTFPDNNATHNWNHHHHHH


Key:
[1] = target: T2, 6×His tagged human SIRPα v1 ECD recombinant protein (human, UniProt P78324 31-373); assay: SPR (Biacore)
T2 construct: extracellular domain; bought; also called hSIRPα V1 (SPR antigen)
T2 sequence (P78324 other isoform, or with tags, fused parts or gaps): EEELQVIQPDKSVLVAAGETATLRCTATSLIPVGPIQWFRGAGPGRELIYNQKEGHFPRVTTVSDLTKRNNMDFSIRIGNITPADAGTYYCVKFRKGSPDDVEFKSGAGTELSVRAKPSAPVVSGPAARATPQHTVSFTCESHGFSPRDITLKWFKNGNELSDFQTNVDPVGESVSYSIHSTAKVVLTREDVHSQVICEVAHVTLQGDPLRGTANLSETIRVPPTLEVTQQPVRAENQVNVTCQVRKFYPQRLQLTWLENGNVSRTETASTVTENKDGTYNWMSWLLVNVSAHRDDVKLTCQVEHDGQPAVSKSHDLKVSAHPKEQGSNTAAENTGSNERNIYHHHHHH
Description: (§1) Anti-SIRPα chimeric antibodies were characterized for binding affinity against human SIRPα v1, human SIRPα v2 and C57BL/6 mouse SIRPα using Biacore (GE). Briefly the antibodies to be tested were captured to CM5 chip (GE) using Human Antibody Capture Kit (GE). The antigens of 6×His tagged human SIRPα v1, human SIRPα v2 and C57BL/6 mouse SIRPα ECD recombinant proteins were serially diluted for multiple doses and injected at 30 μl/min for 180 s. Buffer flow was maintained for dissociation of 400 s. 3 M MgCl₂ was used for chip regeneration. The association and dissociation curves were fit with 1:1 binding model, and the Ka/Kd/KD values for each antibody were calculated.

[2] = target: T1, 6×His tagged C57BL/6 mouse SIRPα ECD …; assay: SPR (Biacore), antibody captured
Description: as §1

[3] = target: T2, 6×His tagged human SIRPα v1 ECD …; assay: SPR (Biacore), antibody captured
Description: as §1

[4] = target: T3, 6×His tagged human SIRPα v2 ECD recombinant protein (human); assay: SPR (Biacore)
T3 sequence (chain, as listed by the source): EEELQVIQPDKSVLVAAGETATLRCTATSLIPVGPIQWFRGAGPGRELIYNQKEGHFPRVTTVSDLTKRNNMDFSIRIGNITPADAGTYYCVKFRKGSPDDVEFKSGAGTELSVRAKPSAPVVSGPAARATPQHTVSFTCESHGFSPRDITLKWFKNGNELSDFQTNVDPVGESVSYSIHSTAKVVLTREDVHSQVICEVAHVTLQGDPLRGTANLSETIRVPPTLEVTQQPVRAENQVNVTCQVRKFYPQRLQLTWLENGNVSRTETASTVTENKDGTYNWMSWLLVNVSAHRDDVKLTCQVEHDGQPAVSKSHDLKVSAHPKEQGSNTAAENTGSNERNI
Description: as §1

[5] = target: T3, 6×His tagged human SIRPα v2 ECD …; assay: SPR (Biacore), antibody captured
Description: as §1

[6] = target: T1, 6×His tagged C57BL/6 mouse SIRPα ECD …; assay: ELISA on coated mouse SIRPα (C57BL/6) ECD, antibody at 10, 1 and 0.1 ug/ml [right panel mSIRPα ECD (C57BL/6]
[7] = target: T4, Fc tagged human SIRPγ ECD recombinant protein (human, UniProt Q9P1W8 29-360); assay: ELISA
T4 construct: range 1-360; cloned range includes the signal peptide; also called hSIRPγ; not shown: human IgG Fc region (hFc) of the pCPC vector
T4 sequence (Q9P1W8 29-360 limits assumed, form in doubt): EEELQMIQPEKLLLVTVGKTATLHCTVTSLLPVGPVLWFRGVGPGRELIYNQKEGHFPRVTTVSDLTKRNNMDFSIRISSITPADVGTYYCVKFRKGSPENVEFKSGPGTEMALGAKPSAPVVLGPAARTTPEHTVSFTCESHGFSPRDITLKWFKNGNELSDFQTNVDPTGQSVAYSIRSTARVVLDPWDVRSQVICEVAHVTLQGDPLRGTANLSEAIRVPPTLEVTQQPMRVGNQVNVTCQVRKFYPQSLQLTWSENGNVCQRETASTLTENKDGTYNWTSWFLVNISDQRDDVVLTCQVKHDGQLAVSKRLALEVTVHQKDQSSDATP
Outline: (§2)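 Coated antigen + antibody, 37° C. 1 h; wash; HRP anti-mouse or anti-human IgG, 37° C. 1 h; TMB 15 min RT; stop 1N HCl; OD450; EC₅₀.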

[8] = target: T4, Fc tagged human SIRPγ ECD recombinant …; assay: ELISA; remark: listed apart in the source
Outline: as §2

[9] = target: T4, Fc tagged human SIRPγ ECD recombinant …; assay: ELISA; remark: listed apart in the source
Outline: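 OD 450 nm readings gave EC₅₀ values after a TMB reaction of 15 min at room temperature, stopped with 1N HCl. Before that, antibodies were bound to antigen-coated wells for 1 h at 37° C. An HRP-labelled anti-mouse or anti-human IgG secondary was then applied for a further 1 h at 37° C.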

Kd [1]	binding result [2]	Kd [3]	koff [3]	kon [3]	Kd [4]	Kd [5]	koff [5]	kon [5]	binding result [6]	EC50 [7]	EC50 [8]	EC50 [9]	Binder
1.49 nM	no binding	1.49 nM	0.000141 s⁻¹	94400 M⁻¹ s⁻¹									chimeric antibody 060c (antibody, V domains shown) VH: QVQLKESGPGLVAPSESLSITCTVSGFSLTNYDISWIRQSPGKGLEWLGVIWTGGDTNFNSAFMSRLSISKDKSKSQVFLKLNSLQTDDTAIYYCVRVQYFGGSYGPMDYWGQGISVTVSS VL: DIQMTQASSYLSVSLGGRVTITCEASDHINDWLAWYQQTPGNAPRLLISGATSLETGVPSRFSGSGSGKDYTLSITSLQTEDIATYYCQQYWNTPLTFGAGTRLELK
11.4 nM	no binding	11.4 nM	0.000855 s⁻¹	74900 M⁻¹ s⁻¹	20.6 nM	20.6 nM	0.000816 s⁻¹	39700 M⁻¹ s⁻¹					chimeric antibody 001c (antibody, V domains shown) VH: EVKLEESGGGLVQPGGSMKLSCVASGFTFRNYWMNWVRQSPERGLEWIAEISLKSNTYATHYAESVKGRFAISRDGSKSSFYLQMNDLRAEDTGIYYCTTFTKVVADWHLDVWGAGTTVTVSS VL: DVLMTQTPLSLPVSLGDQASISCRSSQNIVHSNGNTYLEWYLQKPGQSPKLLIYKVSNRFSGVPDRFSGSGSGTDFTLRISRVEAEDLGVYYCFQGSHVPFTFGSGTKLEIK
8.92 nM		8.92 nM	0.000834 s⁻¹	93500 M⁻¹ s⁻¹	14.7 nM	14.7 nM	0.000774 s⁻¹	52600 M⁻¹ s⁻¹	no binding (tested: 10 ug/ml)				chimeric antibody 032c (antibody, V domains shown) VH: EVRLEESGGGLVQPGGSMKLSCVVSGFTFRNYWMNWVRQSPERGLEWIAEITLKSNTYATHYAESVKGRFAISRDDSKSSFYLQMNDLRPEDTGIYYCTTFTKVVADWHLDVWGAGTTVTVSS VL: DVLMTQTPLSLPVNLGDQASISCRSSQNIVHSNGNTYLEWYLQKPGQSPKLLIYKVSNRFSGVPDRFSGSGSGTDFTLRISRVEAEDLGVYYCFQGSHVPFTFGSGTKLEIK
16.1 nM	no binding	16.1 nM	0.00148 s⁻¹	92000 M⁻¹ s⁻¹	28.3 nM	28.3 nM	0.00146 s⁻¹	51600 M⁻¹ s⁻¹					chimeric antibody 002c (antibody, V domains shown) VH: EVKLEESGGGLVQPGGSMILSCVASGFTFRNYWMNWVRQSPERGLEWIAEITLKSNTYATHYAESVKGRFAISRDDSKSSFYLQMNDLRPEDTGIYYCTTFTKVVADWHLDVWGAGTTVTVSS VL: DVLMTQTPLSLPVSLGDQASISCRSSQNIVHSNGNTYLEWYLQKPGQSPKLLIYKISNRFSGVPDRFSGSGSGTDFTLRISRVEAEDLGVYYCFQGSHVPFTFGSGTKLEIQ
3.07 nM	no binding	3.07 nM	0.000774 s⁻¹	252000 M⁻¹ s⁻¹	4.72 nM	4.72 nM	0.000529 s⁻¹	112000 M⁻¹ s⁻¹		0.27 nM	0.27 nM		chimeric antibody 050c (antibody, V domains shown) VH: QIQLVQSGPELKKPGETVKISCKASGYTFTHYSMHWVKQAPGKGLKWMGWINTETAEPTYVDDFKGRFAFSLEASASTAFFQINNLKNEDTATYFCARGGLRQGDYWGQGTTLTVSS VL: QIVLTQSPPIMSASPGEKVTLTCSATSSVSASYLYWFQQKPGSSPKLWIYSTSNLASGVPARFSGSGSGTSYSLTISNMEPADAASYFCHQWSSYPYTFGGGTKLEIK
												0.38 nM	Antibody 050 (hybridoma antibody) (antibody, V domains shown, mouse hybridoma antibody) VH: QIQLVQSGPELKKPGETVKISCKASGYTFTHYSMHWVKQAPGKGLKWMGWINTETAEPTYVDDFKGRFAFSLEASASTAFFQINNLKNEDTATYFCARGGLRQGDYWGQGTTLTVSS VL: QIVLTQSPPIMSASPGEKVTLTCSATSSVSASYLYWFQQKPGSSPKLWIYSTSNLASGVPARFSGSGSGTSYSLTISNMEPADAASYFCHQWSSYPYTFGGGTKLEIK
5.9 nM	no binding	5.9 nM	0.00074 s⁻¹	125000 M⁻¹ s⁻¹	25.6 nM	25.6 nM	0.00144 s⁻¹	56100 M⁻¹ s⁻¹		18.7 nM	18.7 nM		chimeric antibody 022c (antibody, V domains shown) VH: QIQLVQSGPELKKPGETVKISCKASGYTFTDYAMHWVKQAPGKGLKWMGWKNTETGESTYAEDFKGRFAFFLETSASTAYLQINNVKNEDTATYFCARGGYGSNYVMDYWGQGTSVIVSS VL: DIQMTQSSSSFSVSLGDRVTITCKASEDIYNRLAWYQQKPGNAPRLLISGATSLETGVPSRFSGSGSGKDYTLSITSLQTEDVATYYCQQYWNSPRTFGGGTKLEIK
												0.76 nM	Antibody 022 (hybridoma antibody) (antibody, V domains shown, mouse hybridoma antibody) VH: QIQLVQSGPELKKPGETVKISCKASGYTFTDYAMHWVKQAPGKGLKWMGWKNTETGESTYAEDFKGRFAFFLETSASTAYLQINNVKNEDTATYFCARGGYGSNYVMDYWGQGTSVIVSS VL: DIQMTQSSSSFSVSLGDRVTITCKASEDIYNRLAWYQQKPGNAPRLLISGATSLETGVPSRFSGSGSGKDYTLSITSLQTEDVATYYCQQYWNSPRTFGGGTKLEIK
16.6 nM	no binding	16.6 nM	0.00141 s⁻¹	85100 M⁻¹ s⁻¹	28.5 nM	28.5 nM	0.00138 s⁻¹	48300 M⁻¹ s⁻¹					chimeric antibody 055c (antibody, V domains shown) VH: EVKLVESEGGLVQPGDSMKLSCTASGFTFSDYFMTWIRQVPEKGLEWIANVNYDGRSTYYLDSLKSRFIISRDNANNILYLQMSSLKSEDTATYYCAREGSQTPLYAVDYWGQGTSVTVSS VL: DIVMTQSQKFMSTTVGDRVNITCKASQNVGTAVAWYQQKPGQSPKLLIYLASNRYTGVPDRFTGSGSGTDFTLTVSDMRSEDLADYFCQQYSIYPFTFGSGTKLEIK
												2.22 nM	Antibody 035 (hybridoma antibody) (antibody, V domains shown, mouse hybridoma antibody) VH: QIQLVQSGPELRKPGETVKISCKASGYSFTNYAMNWVKQAPGKVLKWMGFINTYTGEPTYADDFKGRFAFSLETSASTAYLQINNLKNEDTATYFCTRTRGYYDFDGGAFDYWGQGTSLTVSS VL: DIVMTQSQKFMSTSIGDRVSVTCKASQNVGTHLAWYQQKPGQSPKALIFSASYRYIGVPDRFTGSGSGTDFTLTITNVQSEDLAEYFCQQYNTYPLTFGAGTKLELK
4.4 nM	no binding	4.4 nM	0.000229 s⁻¹	52100 M⁻¹ s⁻¹	25.2 nM	25.2 nM	0.000515 s⁻¹	20400 M⁻¹ s⁻¹					chimeric antibody 074c (antibody, V domains shown) VH: QVQLQQPRAELVKPGASVMLSCKASGYTFSSYWIHWVRQGPGQGLEWIGLIHPNSGNTDCSETFKNKATLTVDTSSSTAYMQLSSLASEDSAVYYCARDGASYDWFVHWGQGTLVTVSA VL: not shown
